Measurements: US20210139588A1 (STCUBE, published 2021)

B1: 4NQ mutant (unglycosylated) PD-1 expressed on 293T cells (PD-1-Flag) (receptor)
chain: LDSPDRPWNPPTFSPALLVVTEGDQATFTCSFSQTSESFVLNWYRMSPSQQTDKLAAFPEDRSQPGQDCRFRVTQLPNGRDFHMSVVRARRQDSGTYLCGAISLAPKAQIKESLRAELRVTERRAEVPTAHPSPSPRPAGQFQTLVVGVVGGLLGSLVLLVWVLAVICSRAARGTIGARRTGQPLKEDPSAVPVFSVDYGELDFQWREKTPEPPVPCVPEQTEYATIVFPSGMGTSSPARRGSADGPRSAQPLRPEDGHCSWPL
notes: also called PD-1 4NQ; not shown: Flag tag
B2: anti-glycPD-1 monoclonal antibody STM432 (antibody, V domains shown)
VH: EVMLVEPGGGLVKPGGSLKLSCAASGFTFSSYGMSWVRQTPEKRLEWVATISGGGANTYYPDTVKGRFTISRDNAKNTLYLQMNSLRSEDTALYYCARYGYDTVFAYWGQGTLVTVSA
VL: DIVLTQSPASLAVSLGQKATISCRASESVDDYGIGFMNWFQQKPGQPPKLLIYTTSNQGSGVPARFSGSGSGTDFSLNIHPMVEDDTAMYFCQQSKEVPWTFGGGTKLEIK
notes: Mouse monoclonal antibody from a hybridoma; also called MAb STM432

Tests used:
[1] = molecular target: T1, recombinant human PD-L1-Fc chimera protein (R&D Systems) (human, UniProt Q9NZQ7 19-239); assay: live-cell imaging (IncuCyte) of labeled PD-L1-Fc on 293T cells
T1 construct: Bought reagent; Used fluorescently labeled or detected with anti-human-Fc Alexa Fluor 488; also called PD-L1-Fc fusion protein; not shown: Fc portion, detected with anti-human IgG
Excerpt: PD-L1 and PD-1 (PD-L1/PD-1) interaction assay. […] The secondary antibodies used were anti-human Alexa Fluor 488 dye conjugate (Life Technologies). The fluorescence intensity of Alexa Fluor 488 dye was then monitored using a real-time microscope IncuCyte (Essen BioScience, Ann Arbor, Mich., USA).
Ligand and receptor binding was quantified by IncuCyte™Zoom every hour, according to the manufacturer's instructions.

[2] = molecular target: T2, N49Q mutant PD-1-Fc protein (Homo sapiens (Human), UniProt Q15116 25-170); assay: Western blot of PD-1-Fc proteins
T2 construct: also called PD-1 with a mutant glycosylation site at position 49; not shown: Fc portion

[3] = molecular target: T3, N74Q mutant PD-1-Fc protein (Homo sapiens (Human), UniProt Q15116 25-170); assay: Western blot of PD-1-Fc proteins
T3 construct: also called PD-1 with a mutant glycosylation site at position 74; not shown: Fc portion

PD-1-His = molecular target: T4, PD-1-His (Homo sapiens (Human), UniProt Q15116 25-170, limits assumed); assay: BIACORE (SPR), antigen PD-1-His
T4 construct: also called glycosylated PD-1 (BIACORE antigen); not shown: His tag

[4] = molecular target: T5, wild type (glycosylated) PD-1 expressed on 293T cells (PD-1-Flag) (human, UniProt Q15116 25-288, N-linked glycosylation at N49, N58, N74 and N116); assay: flow cytometry on 293T cells; reference: 4NQ PD-1 cells
T5 construct: also called PD-1 WT; not shown: Flag tag
Experimental: (§1) Flow Cytometry. Cells overexpressing PD-1 wild type and mutant proteins or control vector were isolated by trypsinization and collected in Cell Staining Buffer (CSB) (BioLegend, San Diego, Calif., US) at 2×10⁶ cells/mL. 50 μL of cells were aliquoted to a 96 well round-bottom plate, to which 50 μL of 20 μg/mL primary antibody was added, followed by gentle mixing and 1 h incubation at 4° C. in the dark. Cells were washed with CSB, incubated with anti-mouse IgG-PE conjugate (10 μg/mL) with DAPI (1:100) 30 minutes 21° C. in the dark. Cells were washed and data acquired using Guava EasyCyte HT (Millipore Darmstadt, Del.) or FACS Celesta (Becton Dickinson, Franklin Lakes, N.J., US) flow cytometer.

[5] = molecular target: T5, wild type (glycosylated) PD-1 expressed …; assay: flow cytometry on 293T cells expressing the PD-1 form, labeled secondary antibody
Experimental: as §1

[6] = molecular target: T6, N49Q mutant PD-1 expressed on 293T cells (PD-1-Flag) (human, UniProt Q15116 25-288); assay: as above
T6 construct: also called N49Q PD-1; not shown: Flag tag
Experimental: as §1

[7] = molecular target: T7, N58Q mutant PD-1 expressed on 293T cells (PD-1-Flag) (human, UniProt Q15116 25-288); assay: as above
T7 construct: also called N58Q PD-1; not shown: Flag tag
Experimental: as §1

[8] = molecular target: T8, N74Q mutant PD-1 expressed on 293T cells (PD-1-Flag) (human, UniProt Q15116 25-288); assay: as above
T8 construct: also called N74Q PD-1; not shown: Flag tag
Experimental: as §1

[9] = molecular target: T9, N116Q mutant PD-1 expressed on 293T cells (PD-1-Flag) (human, UniProt Q15116 25-288); assay: as above
T9 construct: also called N116Q PD-1; not shown: Flag tag
Experimental: as §1

[10] = molecular target: B1; assay: as above
Experimental: as §1

[11] = molecular target: B1; assay: flow cytometry on 293T cells expressing 4NQ PD-1, anti-mouse IgG-PE secondary
Experimental: as §1

[12] = molecular target: T6, N49Q mutant PD-1 expressed on 293T …; assay: flow cytometry on 293T cells expressing N49Q PD-1, anti-mouse IgG-PE secondary
Experimental: as §1

[13] = molecular target: T8, N74Q mutant PD-1 expressed on 293T …; assay: flow cytometry on 293T cells expressing N74Q PD-1, anti-mouse IgG-PE secondary
Experimental: as §1

[14] = molecular target: T9, N116Q mutant PD-1 expressed on 293T …; assay: flow cytometry on 293T cells expressing N116Q PD-1, anti-mouse IgG-PE secondary
Experimental: as §1

[15] = molecular target: T5, wild type (glycosylated) PD-1 expressed …; assay: inhibition of PD-L1-Fc binding to 293T cells overexpressing PD-1, IncuCyte fluorescence imaging
Experimental: Green fluorescence was measured every 2 hours by IncuCyte™ Zoom device and quantitated by IncuCyte™ Zoom Software (Essen BioScience, Ann Arbor, Mich., USA).

[16] = molecular target: T5, wild type (glycosylated) PD-1 expressed …; assay: flow cytometry on 293T cells expressing wild type PD-1 against 293T cells expressing 4NQ PD-1, labeled secondary antibody
Experimental: as §1

[17] = molecular target: T6, N49Q mutant PD-1 expressed on 293T …; assay: flow cytometry on 293T cells expressing the PD-1 variant, anti-mouse IgG-PE secondary, DAPI-negative population gated; percent of cells right of the dashed gate; 293T blank cells give 2.71
Experimental: as §1

[18] = molecular target: T8, N74Q mutant PD-1 expressed on 293T …; assay: as above
Experimental: as §1

[19] = molecular target: T9, N116Q mutant PD-1 expressed on 293T …; assay: as above
Experimental: as §1

[20] = molecular target: B1; assay: as above
Experimental: as §1

T1 sequence (Q9NZQ7 19-239 limits assumed, change not shown): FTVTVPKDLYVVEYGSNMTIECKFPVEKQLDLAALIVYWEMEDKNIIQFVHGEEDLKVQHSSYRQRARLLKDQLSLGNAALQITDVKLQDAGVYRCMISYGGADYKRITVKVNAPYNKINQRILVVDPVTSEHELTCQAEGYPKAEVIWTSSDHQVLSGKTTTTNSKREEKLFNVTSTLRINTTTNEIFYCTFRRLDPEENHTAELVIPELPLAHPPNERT

Binder: B1
binding result [1]: no binding

Binder: B2
binding result [2]: no binding (tested: 0.5 µg protein on the blot) | binding result [3]: no binding (tested: 0.5 µg protein on the blot) | Kd (PD-1-His): 296 nM | koff (PD-1-His): 0.0053 s⁻¹ | kon (PD-1-His): 17900 M⁻¹ s⁻¹ | fold MFI on wild type PD-1 against unglycosylated 4NQ mutant PD-1 [4]: ~43 fold | MFI [5]: 1140 MFI | MFI [6]: 32 MFI | MFI [7]: 413 MFI | MFI [8]: 29 MFI | MFI [9]: 31 MFI | MFI [10]: 26 MFI | binding result [11]: no binding | binding result [12]: no binding | binding result [13]: no binding | binding result [14]: no binding | EC50 [15]: 0.11 µg/mL | fold MFI against binding to the unglycosylated 4NQ mutant PD-1 [16]: ~43 times | Unit (%) (cells in the positive gate) [17]: 4.6% | Unit (%) (cells in the positive gate) [18]: 7.71% | Unit (%) (cells in the positive gate) [19]: 4.12% | Unit (%) (cells in the positive gate) [20]: 1.82%
